{"source": "patent US20200317768A1", "about": "(published 2020)", "binders": {"B1": {"name": "MS_M103205H000-SG1/M103202LO00-SK1 (antibody, human IgG1, kappa, V domains shown)", "VH": "QVTLKESGPVLVKPTETLTLTCTVSGIDLSSYDISWVRQAPGKGLEWVGIISYAGSTYYASWAKGRLTISKDTSKNQVVLTMTNMDPVDTATYYCARGVPAYSTGGDLWGQGTLVTVSS", "VL": "DIVMTQSPATLSLSPGERATLSCQSSQSVYDNNWLSWFQQKPGQPPKLLIYWASTLASGVPSRFSGSGSGTDFTLTISSLQPEDAATYYCAGGYGGGLYAFGQGTKVEIKR", "notes": "Humanized MST1032, not pH-dependent; also called MS1032LO00-SG1; Ab001"}}, "biological_target": "T1, Cynomolgus monkey latent myostatin (cynomolgus monkey, UniProt Q95J86 25-266; Q95J86 267-375)", "T1 construct": "signal 1-24; also called Cyno latent myostatin", "T1 sequence 1": "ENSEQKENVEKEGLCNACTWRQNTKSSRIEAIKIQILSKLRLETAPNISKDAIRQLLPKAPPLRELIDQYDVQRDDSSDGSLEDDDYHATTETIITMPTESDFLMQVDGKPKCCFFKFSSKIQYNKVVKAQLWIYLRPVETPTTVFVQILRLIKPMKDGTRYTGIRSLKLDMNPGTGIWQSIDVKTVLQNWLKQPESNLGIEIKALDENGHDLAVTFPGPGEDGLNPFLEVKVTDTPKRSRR", "T1 sequence 2": "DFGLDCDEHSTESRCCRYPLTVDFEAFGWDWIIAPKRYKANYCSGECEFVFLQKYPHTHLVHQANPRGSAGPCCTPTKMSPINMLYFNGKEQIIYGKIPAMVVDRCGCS", "assay": "SPR (BIACORE T200), 37 C, pH7.4, 1:1 fit; title prints avidity, by the text the affinity condition (capture 18.5 RU); pH 7.4", "protocol": "The kinetic parameters of anti-latent myostatin antibodies against human, cynomolgus monkey (cyno), and mouse latent myostatin were assessed at 37° C. at pH7.4 using a BIACORE® T200 instrument (GE Healthcare). ProA/G (Pierce) was immobilized onto all flow cells of a CM4 chip using amine coupling kit (GE Healthcare). Anti-latent myostatin antibody and analytes were prepared in ACES pH7.4 (20 mM ACES, 150 mM NaCl, 1.2 mM CaCl₂), 0.05% TWEEN® 20, 0.005% NaN₃). […] Then human, cyno, or mouse latent myostatin was injected at 3.125 to 50 nM prepared by two-fold serial dilution, followed by dissociation. The sensor surface was regenerated with 25 mM NaOH. Kinetic parameters were determined by processing and fitting the data to a 1:1 binding model using BIACORE® T200 Evaluation software, version 2.0 (GE Healthcare).\nAll experimental settings were the same as in Example 7, except that measurements were also performed in ACES pH5.8 buffer in addition to ACES pH7.4 condition. Some antibodies were only measured against human latent myostatin. Antibody capture level was aimed at 185 RU and 18.5 RU, for avidity and affinity assay, respectively. Kinetic parameters were determined using 1:1 Binding fitting using BIACORE® T200 Evaluation software, version 2.0 (GE Healthcare)."}
{"binder": "B1", "values": [{"measurement": "Kd", "result": 209, "unit": "pM"}, {"measurement": "koff", "result": 0.000213, "unit": "s⁻¹"}, {"measurement": "kon", "result": "1.02e+06", "unit": "M⁻¹ s⁻¹"}]}
